# Target: GPIIb/IIIa (UniProt P08514)
# Assay: inhibition of hu Fibrinogen-Ru binding
substance,measurement,value
Fibrinogen,IC50,10.5 nM
same,Ki,5.26 nM

# Reference: patent publication US20020168363A1, “Integrin/adhesion antagonists” (Amgen Inc., priority 2000, published 2002)
